This note sets out measurements from patent US8143025B2, “Antibodies against vascular endothelial growth factor receptor-1” (ImClone LLC, priority 2004, dated 2012).

Entries after “also recorded” stand apart in the source; their conditions may differ.

Test [1] addresses human VEGFR-2 alkaline phosphatase (Homo sapiens, UniProt P35968). Nature of the test: ELISA-based specificity assay (Example 2A). Format: binding. To be noted: FIG. 6C. The protocol:
(§1) To determine the specificity of an anti-VEGFR-1 monoclonal antibody to human VEGFR-I, purified antibodies 18F1 were tested in an ELISA-based assay. One μg/ml of recombinant human VEGFR-I Fc, mouse VEGFR-I Fc, mouse VEGFR-2 Fe, or human VEGFR-2 alkaline phosphatase was coated with PBS in a 96-well microtiter plates at 4° C. over night. After wash, the receptor coated plates were blocked with PBS containing 5% Dry Milk and 0.05% Tween 20. Serial dilutions of primary antibody 18F1 to human VEGFR-I, MF1 to mouse VEGFR-I. ICl 1 to human VEGFR-2, or DClOl to mouse VEGFR-2 were incubated in the receptor-coated plates for 30 minutes. After wash secondary anti-primary HRP conjugate antibodies was incubated in the plates for 30 minutes. Plates were washed and incubated with the substrate TMB (3,3′,5,5′-tetra-methylbenzidine) for color development. The absorbance at 450 nm was read as OD values for quantification of binding activity of antibodies. Data were analyzed using a GraphPad Prism Software.

For another test, the target named is mouse VEGFR-2 (Mus musculus, UniProt P35918). Nature of the test: ELISA-based specificity assay (Example 2A). To be noted: FIG. 6D. Format: binding. As for the experimental part:
as §1

For test [2], the target named is T1, recombinant human VEGFR-I Fc (Homo sapiens, UniProt P17948).
T1 construct: soluble recombinant VEGFR-I Fc (rhuVEGFR-1 Fc) proteins were purchased from (R&D Systems Inc); purchased R&D Systems Inc
Briefly: ELISA-based specificity assay (Example 2A). The format is binding. To be noted: FIG. 6A. The protocol:
as §1

Test [3] concerns the target T2, native VEGFR-I on PAE-VEGFR-I cells (Homo sapiens, UniProt P17948).
T2 construct: host or cells: porcine aorta endothelial (PAE) cells
Briefly: Flow cytometry analysis, PAE-VEGFR-I cells. Format: binding. To be noted: FIG. 7. The protocol:
Aliquots of 10^6PAE-VEGFR-I cells were harvested from subconfluent cultures and incubated with anti-VEGFR-I antibody clones 6F9, 13G12, F11, and 18F1 in PBS with 1% bovine serum albumin (BSA) and 0.02% sodium azide (staining buffer) for one hour on ice. Aliquots of 10^6DU4475 human breast carcinoma cells were harvested from subconfluent cultures and incubated with anti-VEGFR-1 antibody clone 18F1 in PBS with 1% bovine serum albumin (BSA) and 0.02% sodium azide (staining buffer) for one hour on ice. A matched IgG isotype (Jackson ImmunoResearch, West Grove, Pa.) was used as a negative control. Cells were washed twice with flow buffer and then incubated with a fluorescein isothiocyanate (FITC)-labeled goat anti-human IgG antibody (BioSource International, Camarillo, Calif.) in staining buffer for 30 minutes on ice. Cells were washed as above and analyzed on an Epics XL flow cytometer (Beckman-Coulter, Hialeah, Fla.). Dead cells and debris were eliminated from the analysis on the basis of forward and sideways light scatter. The mean fluorescent intensity units (MFRJ) were calculated as the mean log fluorescence multiplied by the percentage of positive population.

The test system of test [4] is ERK1/2 downstream signaling. Briefly: ERK1/2 activation Western blot, PAE-VEGFR-I cells. The format is cell-based. To be noted: PAE-VEGFR-I transfectant cells, FIGS. 12-14. The protocol: Autophosphorylation of the VEGFR-I induced by its ligands and resulting activation of a classical MAPK, extracellular signal-regulated protein kinases 1Z2 (ERK1Z2) and the PBK/Atk downstrean signaling pathways mediate cellular biological responses such as proliferation, motility, survival, and differentiation. The ability of an anti-VEGFR-1 antibody to inhibit phosphorylation of VEGFR-I and activation of ERK1 Z2 and the Akt kinases downstream signaling were determined by using the PAE-VEGFR-I transfectant and BT474 breast carcinoma cells.
PAE-VEGFR-I and BT474 cells were seeded at a density of 5×10^5Zwell in […] plates and cultured in serum-free medium for 18-48 hours. After replacing the culture medium, the cells were treated at 37° C. with anti-VEGFR-I antibody clones 6F9, 15F1 1, and 18F1 or isotype control for 1 hour and then incubated with 50 ng/ml of VEGF or 100 ng/ml of PlGF for 10 minutes. […] Western blot of phosphorylated VEGFR-I was detected using […] antibody (PY-20, Santa Cruz Biotechnology, Santa Cruz, Calif.). Proteins were detected using and […] chemiluminescence system (ECL)(Amersham Pharmacia Biotech, Piscataway, N.J.), and quantified by densitometry using NIH Image (National Institute of Mental Health, Bethesda, Md.). […]

The subject of the next test is HT-29 cells. Briefly: Migration through membrane insert. Format: cell-based, human. To be noted: 66 nM antibody, 10 ng/mL VEGF-A or 50 ng/mL VEGF-B, 48 hours, p<0.05, FIG. 23. The protocol: HT-29 cells (2.5×1 10^4) or SW480 cells (1.5×1 10^4) were incubated in medium containing 1% FBS with the anti-VEGFR-1 antibody 18F1 (66 nM) in the upper surface of a 24 well MATRIGEL™ coated (HT-29) or uncoated (SW480) 8.0-μm pore size membrane insert (Becton Dickinson Labware, Bedford, Mass.). The inserts were placed into lower chambers containing 10 ng/mL VEGF-A (R&D Systems) or 50 ng/mL VEGF-B (R&D Systems) for 48 hours. Cells remaining in the top chamber of the inserts were removed with a cotton swab. Cells migrating to the underside of the inserts were stained with Diff-Quik (Harleco, Gibbstown, N.J.) and counted in ten random fields at 100× magnification. Statistical analysis was performed using InStat Statistical Software (V2.03, GraphPad Software, San Diego, Calif.).

T2 sequence (P17948 27-1338): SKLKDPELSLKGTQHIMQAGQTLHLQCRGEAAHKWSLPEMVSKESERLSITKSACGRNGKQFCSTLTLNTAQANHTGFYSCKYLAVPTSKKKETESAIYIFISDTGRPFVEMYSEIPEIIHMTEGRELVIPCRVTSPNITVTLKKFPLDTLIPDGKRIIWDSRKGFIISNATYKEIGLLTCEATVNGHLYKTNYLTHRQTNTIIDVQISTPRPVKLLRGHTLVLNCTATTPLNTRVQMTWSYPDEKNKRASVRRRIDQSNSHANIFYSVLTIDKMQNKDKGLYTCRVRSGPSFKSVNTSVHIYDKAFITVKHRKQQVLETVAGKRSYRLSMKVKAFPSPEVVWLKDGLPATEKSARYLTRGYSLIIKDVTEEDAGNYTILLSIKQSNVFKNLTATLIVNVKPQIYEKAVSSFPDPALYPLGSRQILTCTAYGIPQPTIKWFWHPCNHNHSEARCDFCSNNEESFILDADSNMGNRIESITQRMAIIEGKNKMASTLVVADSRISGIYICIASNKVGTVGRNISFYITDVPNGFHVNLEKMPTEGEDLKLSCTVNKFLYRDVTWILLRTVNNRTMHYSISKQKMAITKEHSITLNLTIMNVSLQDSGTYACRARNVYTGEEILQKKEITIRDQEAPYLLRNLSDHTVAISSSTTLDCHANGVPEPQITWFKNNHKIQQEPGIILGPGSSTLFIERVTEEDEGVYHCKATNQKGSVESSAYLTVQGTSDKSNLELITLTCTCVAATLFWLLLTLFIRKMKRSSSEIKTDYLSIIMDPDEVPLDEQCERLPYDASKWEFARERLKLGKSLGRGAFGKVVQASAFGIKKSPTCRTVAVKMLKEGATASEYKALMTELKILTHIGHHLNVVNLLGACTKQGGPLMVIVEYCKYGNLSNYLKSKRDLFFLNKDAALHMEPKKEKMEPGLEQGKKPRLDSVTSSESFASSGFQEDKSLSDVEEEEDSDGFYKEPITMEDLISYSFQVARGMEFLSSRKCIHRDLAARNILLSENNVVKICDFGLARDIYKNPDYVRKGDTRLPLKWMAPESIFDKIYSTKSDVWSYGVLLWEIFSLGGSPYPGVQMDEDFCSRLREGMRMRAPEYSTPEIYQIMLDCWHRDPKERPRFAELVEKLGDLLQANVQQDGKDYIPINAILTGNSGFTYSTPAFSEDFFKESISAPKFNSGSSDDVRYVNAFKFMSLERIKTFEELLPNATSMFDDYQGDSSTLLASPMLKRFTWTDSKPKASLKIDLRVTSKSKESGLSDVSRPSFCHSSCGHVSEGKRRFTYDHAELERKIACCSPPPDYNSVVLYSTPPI
Sequence of human VEGFR-2 alkaline phosphatase (P35968 20-764 limits assumed): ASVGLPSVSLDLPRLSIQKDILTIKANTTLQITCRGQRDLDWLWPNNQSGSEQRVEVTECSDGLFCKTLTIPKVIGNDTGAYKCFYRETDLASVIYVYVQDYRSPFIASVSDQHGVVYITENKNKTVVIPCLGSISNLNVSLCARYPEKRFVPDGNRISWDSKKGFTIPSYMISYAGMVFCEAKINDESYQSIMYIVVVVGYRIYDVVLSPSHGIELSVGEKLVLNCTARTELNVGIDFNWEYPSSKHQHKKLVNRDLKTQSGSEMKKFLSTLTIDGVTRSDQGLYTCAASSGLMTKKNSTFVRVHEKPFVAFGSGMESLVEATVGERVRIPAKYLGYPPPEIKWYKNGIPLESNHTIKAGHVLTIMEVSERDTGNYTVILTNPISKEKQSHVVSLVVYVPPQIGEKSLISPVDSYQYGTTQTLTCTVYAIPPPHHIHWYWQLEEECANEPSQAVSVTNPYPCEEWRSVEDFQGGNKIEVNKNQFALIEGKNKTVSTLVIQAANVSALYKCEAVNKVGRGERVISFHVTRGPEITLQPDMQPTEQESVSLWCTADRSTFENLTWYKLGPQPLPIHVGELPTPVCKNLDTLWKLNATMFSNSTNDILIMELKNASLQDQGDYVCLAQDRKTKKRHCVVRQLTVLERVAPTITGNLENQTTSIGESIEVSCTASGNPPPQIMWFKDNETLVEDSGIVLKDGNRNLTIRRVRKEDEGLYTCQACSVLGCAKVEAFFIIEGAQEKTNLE
Sequence of mouse VEGFR-2 (P35918 20-762 limits assumed): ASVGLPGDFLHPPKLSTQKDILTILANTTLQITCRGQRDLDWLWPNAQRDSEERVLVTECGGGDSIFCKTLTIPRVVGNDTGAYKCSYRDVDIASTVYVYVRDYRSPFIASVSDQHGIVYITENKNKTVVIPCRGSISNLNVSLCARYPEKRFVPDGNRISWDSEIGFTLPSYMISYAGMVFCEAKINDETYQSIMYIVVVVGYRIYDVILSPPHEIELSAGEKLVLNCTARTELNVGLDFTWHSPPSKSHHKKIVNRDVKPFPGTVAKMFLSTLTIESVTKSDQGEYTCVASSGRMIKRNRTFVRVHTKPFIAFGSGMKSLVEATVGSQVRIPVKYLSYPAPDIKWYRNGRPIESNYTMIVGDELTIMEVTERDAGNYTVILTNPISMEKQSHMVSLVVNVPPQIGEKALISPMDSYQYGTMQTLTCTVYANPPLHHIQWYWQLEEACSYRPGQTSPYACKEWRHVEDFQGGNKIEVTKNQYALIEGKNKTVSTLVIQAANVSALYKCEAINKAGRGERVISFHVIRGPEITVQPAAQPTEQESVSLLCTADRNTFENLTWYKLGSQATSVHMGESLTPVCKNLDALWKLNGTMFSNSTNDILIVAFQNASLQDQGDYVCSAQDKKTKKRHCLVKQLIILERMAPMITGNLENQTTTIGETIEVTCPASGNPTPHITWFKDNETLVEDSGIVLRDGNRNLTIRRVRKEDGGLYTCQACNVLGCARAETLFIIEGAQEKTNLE
T1 sequence (P17948 27-758 limits assumed): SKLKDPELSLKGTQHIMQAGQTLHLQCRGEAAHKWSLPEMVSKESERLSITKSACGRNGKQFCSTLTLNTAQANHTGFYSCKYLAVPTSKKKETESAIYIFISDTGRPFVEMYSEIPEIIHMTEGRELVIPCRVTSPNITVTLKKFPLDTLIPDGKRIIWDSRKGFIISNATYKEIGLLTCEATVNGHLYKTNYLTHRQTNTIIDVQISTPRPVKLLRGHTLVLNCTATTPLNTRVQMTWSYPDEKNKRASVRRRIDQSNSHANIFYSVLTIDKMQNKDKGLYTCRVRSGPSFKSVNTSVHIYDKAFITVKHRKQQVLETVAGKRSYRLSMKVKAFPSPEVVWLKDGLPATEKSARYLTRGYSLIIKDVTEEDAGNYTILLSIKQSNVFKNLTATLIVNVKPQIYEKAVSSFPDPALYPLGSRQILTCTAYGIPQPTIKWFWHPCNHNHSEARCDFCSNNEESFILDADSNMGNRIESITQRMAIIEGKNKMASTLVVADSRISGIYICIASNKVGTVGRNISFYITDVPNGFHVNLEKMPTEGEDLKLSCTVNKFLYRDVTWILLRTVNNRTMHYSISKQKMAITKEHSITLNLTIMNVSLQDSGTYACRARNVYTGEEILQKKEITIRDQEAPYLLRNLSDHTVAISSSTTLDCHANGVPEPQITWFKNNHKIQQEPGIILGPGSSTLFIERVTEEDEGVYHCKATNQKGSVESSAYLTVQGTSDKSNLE

“18F1: human anti-VEGFR-1 monoclonal antibody clone; VL SEQ ID NO: 16, VH SEQ ID NO: 20 [Clone 18F1]”: the “cross reactivity with human VEGFR-2” value in test [1] is reported as “no cross reactivity”. For the same substance, in the test with mouse VEGFR-2, the “cross reactivity with mouse VEGFR-2” value is on record as “no cross reactivity”. Further, the “binding specificity to human VEGFR-I” value in test [2] is listed as “binding of human VEGFR-I”. Further, the “binding reactivity with PAE-VEGFR-I expressing cells” value in test [3] was “binding reactivity”. Besides, in test [4], the “PlGF and VEGF induced activation of ERK1/2 downstream signaling” value was “dramatically inhibited; also recorded: inhibition”. For the same substance, the “VEGFR-I ligand induced migration” value in the test with HT-29 cells is “completely blocked”.
